Columns and labels:
[1] = biological target: SK-BR-3 cells (antigen not identified); assay: saturation binding to cells by FACS, double-reciprocal plot; 'Rel. Affinity (nM)'; antigen on the cells not identified
[2] = biological target: OVCAR-3 cells (antigen not identified); assay: as above
[3] = biological target: OVCAR-3 cells (antigen not identified); assay: immunohistochemistry on OVCAR3 cells

Row | Binder | Kd [1] | Kd [2] | # Samples Staining Positive [3]
1 | 1250_I13 (antibody, V domains shown) VH: QVQLQQWGAGLLKPSETLSLTCAVYGGSFSGYFWTWVRQLPGRGLEWIGEINHRGTSSYNPSLRSRLTISVDTSKNQFSLKLSSVTAADTAVYYCARITEAVGFTSFDYWGQGILVTVSS VL: QSVLTQPPSMSAAPGQKVTISCSGSTSNIGSNYVSWYQQLPQRAPKLLIYDNDKRPSGIPDRFSGSKSGASATLDITGLQTGDEAYYYCGTWDSSLSRVFGGGTKLTVL | 1.1 nM | – | –
2 | 1256_B2 (antibody, V domains shown) VH: QVQLQQWGAGLLKPSETLSLTCAVYGGSFSGYFWSWIRQPPGRGLEWIGEINHRGSSTYKSSLKTRLTMSVDTSKNQFSIKLTSVTAADTAVYYCARITEAVGVTSFDSWGQGVLVTVSS VL: QSVLTQPPSVSAAPGQKVTISCSGSTSNIGNNYVSWYQQLPQRAPRLLIYDNDKRPSGIPDRFSGSKSGASATLGITGLQTGDEAYYYCGTWDNNLSRVFGGGTKLTVL | 1.2 nM | – | –
3 | 1253_N12 (antibody, V domains shown) VH: QVQLQQWGAGLVKPSETLSVTCAVYGGSFSGYFWTWIRQPPGRGLEWIGEINHRGSSSYNPSLRSRLSISVDTSKNQFSLKMRSVTAADTAVYYCARITEAVGVTSFDSWGQGVLVTVSS VL: QSVLTQPPSVSAAPGQKVTISCSGSTSNIGNNYVSWYQQLPQRAPKLLIYDDDKRPSGIPDRFSGSKSGASATLAITGLQTGDEAYYYCGTWDSSLSRVFGGGTKLTVL | 1.1 nM | – | –
4 | 1242_P11 (antibody, V domains shown) VH: QVQLTQWGAGLLKPSETLSLTCAVGGGSFSGYFWTWIRQSPGRGLEWIGEINHKGKTTYNPTLKSRLSILVDTFKNQFSLKLRSVVAADTAVYYCARIVEAVGVTSFDSWGQGILVTVSS VL: QSVLTQPPSVSAAPGQKVTISCSGSTSNIGNNHVSWYQQLPQTAPKLLIYDNNKRPSGIPDRFSGSKSGASATLGITGLQTGDEAYYYCGTWDTRLSRVFGGGTKLTVL | – | 2 nM | –
5 | 1226_K16 (antibody, V domains shown) VH: QVQLQQWGAGLLKPSETLSLTCAVYGGSLSGYFWTWIRQPPGRGLEWIGEINHRRTTTSNPSLRSRLTISLDTSKNQFSLKLSSVTAADTAVYYCARITEAVGVTSFDYWGQGILVTVSS VL: QSVLTQPPSVSAAPGQKVNISCSGSTSNIGNNFVAWYQQLPQRAPKLLIYDNDKRPSGIPDRFSGSKSGASATLGITGLQSGDEAYYYCGTWDSTLSRVFGGGTKLTVL | – | 1.6 nM | –
6 | 1038_D5 (TCN-445) (antibody, V domains shown) VH: QVQLVQSGAEVQKPGASMKVSCKASGYTFTDFYFHWVRQAPGQGLEWMGWINPRSGATNYAHKFRGRVTMTSDTSIKTIYMSLGWLRSGDTAVYYCARDMRRENGYNFDGTFDYWGQGTLVTVSS VL: DIQMTQSPPSLSASVGDRVTITCQASQDIKNYLNWYQQKPGKAPKLLIYDASNLETGVPSRFSGSRSGTNFTFTINSLQPEDIATYFCQRYDAFPLTFGGGSKVEIK | – | 0.8 nM | > 75%

Source: US20110064743A1
